In IntAct's records for PubMed 19277847:

B1: Junctophilin-2 (Mus musculus), Q9ET78 (parent)
chain: MSGGRFDFDDGGAYCGGWEGGKAHGHGLCTGPKGQGEYSGSWNFGFEVAGVYTWPSGNTFEGYWSQGKRHGLGIETKGRWLYKGEWTHGFKGRYGIRQSTNSGAKYEGTWNNGLQDGYGTETYADGGTYQGQFTNGMRHGYGVRQSVPYGMAVVVRSPLRTSLSSLRSEHSNGTVAPDSPAADGPMLPSPPVPRGGFALTLLATAEAARPQGLFTRGTLLGRLRRSESRTSLGSQRSRLSFLKSELSSGASDAASTGSLAEGAEGPDDAAAPFDADIDATTTETYMGEWKNDKRSGFGVSERSSGLRYEGEWLDNLRHGYGRTTLPDGHREEGKYRHNVLVKGTKRRVLPLKSSKVRQKVEHGVEGAQRAAAIARQKAEIAASRTSHAKAKAEAAEQAALAANQESNIARTLAKELAPDFYQPGPEYQKRRLLQEILENSESLLEPPERGLGTGLPERPRESPQLHERETPQPEGGPPSPAGTPPQPKRPRPGASKDGLLSPGSWNGEPGGEGSRPATPSDGAGRRSPARPASEHMAIEALQPPPAPSQEPEVAMYRGYHSYAVRTGPPEPPPLEDEQEPEPEPEPEVRRSDSAPPSPVSATVPEEEPPAPRSPVPAKQATLEPKPIVPKAEPKAKARKTEARGLSKAGAKKKGRKEVAQAKEAEVEVEEVPNTVLICMVILLNIGLAILFVHLLT
partner: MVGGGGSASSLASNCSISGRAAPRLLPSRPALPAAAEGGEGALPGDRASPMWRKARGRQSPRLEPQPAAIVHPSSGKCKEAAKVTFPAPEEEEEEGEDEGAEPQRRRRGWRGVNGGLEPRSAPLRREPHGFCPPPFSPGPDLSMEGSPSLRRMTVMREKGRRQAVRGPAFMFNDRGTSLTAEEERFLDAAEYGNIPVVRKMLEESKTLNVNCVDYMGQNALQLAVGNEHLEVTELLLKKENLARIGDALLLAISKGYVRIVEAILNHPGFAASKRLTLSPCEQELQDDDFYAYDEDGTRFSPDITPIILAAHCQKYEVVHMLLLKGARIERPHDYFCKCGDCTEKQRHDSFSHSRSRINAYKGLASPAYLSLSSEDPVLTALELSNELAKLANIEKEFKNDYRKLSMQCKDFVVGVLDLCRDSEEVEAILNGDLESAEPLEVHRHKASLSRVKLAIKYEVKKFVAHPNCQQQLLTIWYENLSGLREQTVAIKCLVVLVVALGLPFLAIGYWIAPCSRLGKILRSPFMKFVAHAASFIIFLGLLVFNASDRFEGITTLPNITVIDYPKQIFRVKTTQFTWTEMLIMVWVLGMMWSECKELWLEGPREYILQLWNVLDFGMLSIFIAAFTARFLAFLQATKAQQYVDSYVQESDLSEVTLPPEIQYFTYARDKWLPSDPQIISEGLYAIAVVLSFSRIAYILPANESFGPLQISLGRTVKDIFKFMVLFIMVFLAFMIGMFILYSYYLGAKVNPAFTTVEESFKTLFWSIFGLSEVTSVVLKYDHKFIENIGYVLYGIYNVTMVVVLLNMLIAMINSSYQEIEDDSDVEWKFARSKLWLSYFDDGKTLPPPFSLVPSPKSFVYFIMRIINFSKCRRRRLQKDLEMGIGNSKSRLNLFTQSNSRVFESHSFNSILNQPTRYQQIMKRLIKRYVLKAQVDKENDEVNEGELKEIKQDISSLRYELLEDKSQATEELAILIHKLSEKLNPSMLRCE

Variants of: B1
Details: with TRPC3, G1U2U3

| effect of a mutation on the interaction | Variant |
| --- | --- |
| decreasing interaction | E227A |
| decreasing interaction | R222A |
| decreasing interaction | R216A |
